# Results reported in patent US20110118131A1 (published 2011).
# Residue numbers refer to the chain shown, from its start. In names and notes the source's numbering stands.
# B1: XPA23 light chain A91V (Fab, V domains shown)
# VH: EVQLLESGGGLVQPGGSLRLSCAASGFTFSKYFMFWVRQAPGKGLEWVSVISPSGGMTRYADSVKGRFTISRDNSKNTLYLQMNSLRAEDTAVYYCARVGYGGNSDYWGQGTLVTVSS
# VL: DIQMTQSPSSVSASVGDRLTIICRASQDINRWLAWYQQTPGNAPKLLIHSATSLQSGVPSRFSGSGSGTDFTLTINSLQPEDFATYYCQQVDSFPLTFGGGTKVEIK
# notes: Single light chain substitution; Fab in periplasmic extract; also called C5A (XPA23) A91V
# B2: XPA23 light chain P95V (Fab, V domains shown)
# VH: B1 VH
# VL: B1 VL with V91A, P95V
# notes: Single light chain substitution; Fab in periplasmic extract; also called C5A (XPA23) P95V
# B3: XPA23 light chain S53G (Fab, V domains shown)
# VH: B1 VH
# VL: B1 VL with S53G, V91A
# notes: Single light chain substitution; Fab in periplasmic extract; also called C5A (XPA23) S53G
# B4: XPA23 light chain S53A (Fab, V domains shown)
# VH: B1 VH
# VL: B1 VL with S53A, V91A
# notes: Single light chain substitution; Fab in periplasmic extract; also called C5A (XPA23) S53A
# B5: XPA23 light chain D92I (Fab, V domains shown)
# VH: B1 VH
# VL: B1 VL with V91A, D92I
# notes: Single light chain substitution; Fab in periplasmic extract; also called C5A (XPA23) D92I
# B6: XPA23 light chain S53L (Fab, V domains shown)
# VH: B1 VH
# VL: B1 VL with S53L, V91A
# notes: Single light chain substitution; Fab in periplasmic extract; also called C5A (XPA23) S53L
# B7: XPA23 light chain F94V (Fab, V domains shown)
# VH: B1 VH
# VL: B1 VL with V91A, F94V
# notes: Single light chain substitution; Fab in periplasmic extract; also called C5A (XPA23) F94V
# B8: XPA23 light chain P95L (Fab, V domains shown)
# VH: B1 VH
# VL: B1 VL with V91A, P95L
# notes: Single light chain substitution; Fab in periplasmic extract; also called C5A (XPA23) P95L
# B9: XPA23 light chain P95A (Fab, V domains shown)
# VH: B1 VH
# VL: B1 VL with V91A, P95A
# notes: Single light chain substitution; Fab in periplasmic extract; also called C5A (XPA23) P95A
# B10: XPA23 light chain L96I (Fab, V domains shown)
# VH: B1 VH
# VL: B1 VL with V91A, L96I
# notes: Single light chain substitution; Fab in periplasmic extract; also called C5A (XPA23) L96I
# B11: XPA23 light chain F94I (Fab, V domains shown)
# VH: B1 VH
# VL: B1 VL with V91A, F94I
# notes: Single light chain substitution; Fab in periplasmic extract; also called C5A (XPA23) F94I
# B12: XPA23 light chain L96A (Fab, V domains shown)
# VH: B1 VH
# VL: B1 VL with V91A, L96A
# notes: Single light chain substitution; Fab in periplasmic extract; also called C5A (XPA23) L96A
# B13: XPA23 light chain L96P (Fab, V domains shown)
# VH: B1 VH
# VL: B1 VL with V91A, L96P
# notes: Single light chain substitution; Fab in periplasmic extract; also called C5A (XPA23) L96P
# B14: XPA23 light chain L96G (Fab, V domains shown)
# VH: B1 VH
# VL: B1 VL with V91A, L96G
# notes: Single light chain substitution; Fab in periplasmic extract; also called C5A (XPA23) L96G
# B15: XPA23 light chain D92L (Fab, V domains shown)
# VH: B1 VH
# VL: B1 VL with V91A, D92L
# notes: Single light chain substitution; Fab in periplasmic extract; also called C5A (XPA23) D92L
# B16: XPA23 light chain F94P (Fab, V domains shown)
# VH: B1 VH
# VL: B1 VL with V91A, F94P
# notes: Single light chain substitution; Fab in periplasmic extract; also called C5A (XPA23) F94P
# B17: XPA23 light chain P95T (Fab, V domains shown)
# VH: B1 VH
# VL: B1 VL with V91A, P95T
# notes: Single light chain substitution; Fab in periplasmic extract; also called C5A (XPA23) P95T
# B18: XPA23 light chain P95I (Fab, V domains shown)
# VH: B1 VH
# VL: B1 VL with V91A, P95I
# notes: Single light chain substitution; Fab in periplasmic extract; also called C5A (XPA23) P95I
# B19: XPA23 light chain F94T (Fab, V domains shown)
# VH: B1 VH
# VL: B1 VL with V91A, F94T
# notes: Single light chain substitution; Fab in periplasmic extract; also called C5A (XPA23) F94T
# B20: XPA23 light chain F94L (Fab, V domains shown)
# VH: B1 VH
# VL: B1 VL with V91A, F94L
# notes: Single light chain substitution; Fab in periplasmic extract; also called C5A (XPA23) F94L
# B21: XPA23 light chain D92G (Fab, V domains shown)
# VH: B1 VH
# VL: B1 VL with V91A, D92G
# notes: Single light chain substitution; Fab in periplasmic extract; also called C5A (XPA23) D92G
# B22: XPA23 light chain S53V (Fab, V domains shown)
# VH: B1 VH
# VL: B1 VL with S53V, V91A
# notes: Single light chain substitution; Fab in periplasmic extract; also called C5A (XPA23) S53V
# B23: XPA23 light chain F94A (Fab, V domains shown)
# VH: B1 VH
# VL: B1 VL with V91A, F94A
# notes: Single light chain substitution; Fab in periplasmic extract; also called C5A (XPA23) F94A
# B24: XPA23 light chain S53I (Fab, V domains shown)
# VH: B1 VH
# VL: B1 VL with S53I, V91A
# notes: Single light chain substitution; Fab in periplasmic extract; also called C5A (XPA23) S53I
# B25: XPA23 light chain L96T (Fab, V domains shown)
# VH: B1 VH
# VL: B1 VL with V91A, L96T
# notes: Single light chain substitution; Fab in periplasmic extract; also called C5A (XPA23) L96T
# B26: XPA23 light chain S53P (Fab, V domains shown)
# VH: B1 VH
# VL: B1 VL with S53P, V91A
# notes: Single light chain substitution; Fab in periplasmic extract; also called C5A (XPA23) S53P
# B27: XPA23 light chain D92V (Fab, V domains shown)
# VH: B1 VH
# VL: B1 VL with V91A, D92V
# notes: Single light chain substitution; Fab in periplasmic extract; also called C5A (XPA23) D92V
# B28: XPA23 light chain F94G (Fab, V domains shown)
# VH: B1 VH
# VL: B1 VL with V91A, F94G
# notes: Single light chain substitution; Fab in periplasmic extract; also called C5A (XPA23) F94G
# B29: XPA23 light chain D92A (Fab, V domains shown)
# VH: B1 VH
# VL: B1 VL with V91A, D92A
# notes: Single light chain substitution; Fab in periplasmic extract; also called C5A (XPA23) D92A
# B30: XPA23 light chain D92P (Fab, V domains shown)
# VH: B1 VH
# VL: B1 VL with V91A, D92P
# notes: Single light chain substitution; Fab in periplasmic extract; also called C5A (XPA23) D92P
# B31: XPA23 light chain P95G (Fab, V domains shown)
# VH: B1 VH
# VL: B1 VL with V91A, P95G
# notes: Single light chain substitution; Fab in periplasmic extract; also called C5A (XPA23) P95G
# B32: XPA23 light chain D92T (Fab, V domains shown)
# VH: B1 VH
# VL: B1 VL with V91A, D92T
# notes: Single light chain substitution; Fab in periplasmic extract; also called C5A (XPA23) D92T
# Molecular target: IL-1β (UniProt P01584 117-269)
# Assay: Biacore, Fab periplasmic extract on IL-1β
fold difference in affinity vs original,binding result,Binder
0.51 fold,,B1
,no binding,B2
1.03 fold,,B3
1.07 fold,,B4
0.33 fold,,B5
0.99 fold,,B6
0.2 fold,,B7
,no binding,B8
3.83 fold,,B9
0.67 fold,,B10
0.88 fold,,B11
0.26 fold,,B12
,no binding,B13
,no binding,B14
0.14 fold,,B15
0.17 fold,,B16

fold difference in affinity vs original,binding result,Binder
,no binding,B17
,no binding,B18
,no binding,B19
0.55 fold,,B20
0.26 fold,,B21
1.42 fold,,B22
,no binding,B23
1.42 fold,,B24
0.06 fold,,B25
4.92 fold,,B26
,no binding,B27
,no binding,B28
0.4 fold,,B29
,no binding,B30
,no binding,B31
0.34 fold,,B32
